Tests used:
[1] = tested on: G5DE5tkLuc reporter in S2 cells; test: Effect of Trichostatin-A on Gal4-tethered repression; format: cell-based, Drosophila; details: TSA 100 nM and 400 nM, 24 h before harvest
Experimental: (§1) Drosophila S2 cells were grown in Schneider's medium (Sigma) at 27° C. containing 10% FBS and penicillin/streptomycin. Cells were transfected using the Superfect reagent (Qiagen) following the manufacturer's directions. Transfection assays included 1.5 μg of either the pG5DE5tkLuc reporter or the p-37tkRLuc internal control, essentially as described in Chen et al. (1998) Mol Cell Biol 18:7259-7268. The Gal4 DNA binding domain constructs, pACTIN-SV-Gal4-Gro, pACTIN-SV-Gal4-MBD and pACTIN-SV-Gal4-MBDΔ were constructed by insertion of the Gal4 DBD into the HindIII/PstI sites of pACTIN-SV followed by insertion of Gro, dMBD-like and dMBD-likeΔ into the EcoRI site of the resulting plasmid. Quantities of individual Gal4 plasmids were varied as described in the figure legends. The total amount of plasmid was normalized to 4 μg by addition of pACTIN-SV vector (Huynh et al. (1999) J. Mol Biol 288:13-20) as carrier. Cells were harvested 12 h after transfection and luciferase assays were performed using an Enhanced Luciferase Assay Kit (Pharmingen) according to the manufacturer's instructions. Where indicated, transfected cells were treated with Trichostatin A (TSA, Wako) for 24 h before harvest. If dMBD-like represses transcription through recruitment of a Drosophila Mi-2 complex, transcriptional repression should be sensitive to inhibitors of histone deacetylases. Accordingly, the effect of Trichostatin-A, a histone deacetylase inhibitor, on dMBD-like-mediated repression was tested.

[2] = tested on: G5DE5tkLuc reporter in S2 cells; test: Cotransfection transcription assay, Gal4-tethered repression of luciferase reporter; format: cell-based, Drosophila; details: transfection into S2 cells; protein not tethered
Experimental: as §1, with “If dMBD-like represses transcription through recruitment of a Drosophila Mi-2 complex, transcriptional repression should be sensitive to inhibitors of histone deacetylases. Accordingly, the effect of Trichostatin-A, a histone deacetylase inhibitor, on dMBD-like-mediated repression was tested.” left out

[3] = tested on: methylated (GAM12) and unmethylated (GAC12) DNA probes; test: Gel mobility-shift assay (solution binding); details: GAC12 or GAM12 probe; 50, 75, 150 ng protein
Experimental: (§2) Gel mobility shifts were performed in 10% polyacrylamide gels run in 0.5×TBE buffer (45 mM Tris, pH 8.0, 45 mM boric acid, 1 mM EDTA) using GAC12 or GAM12 double-stranded oligonucleotide probes, essentially as described in Wade et al. (1999) Nature Genet. 23:62-66. One picomole of radiolabelled probe was mixed with purified recombinant protein as indicated in the figure legends in 10 mM Tris HCl pH 8.0, 3 mM MgCl2, 50 mM NaCl, 0.1 mM EDTA, 0.1% NP-40, 2 mM DTT, 5% glycerol and 0.4 mg/ml BSA. The samples were incubated for 30 min at 37° C. 30 pmoles of competitor DNA (GAC12 or GAM12) were used per binding reaction. Gels were scanned on a Phosphormager (Molecular Dynamics). The procedure used for southwestern assays is as described in Wade et al. (1999), supra.
Solution interactions with DNA were also examined using an electrophoretic mobility shift assay (FIG. 1D). […] No interaction was detected under these conditions, even non-specific aggregation.

[4] = tested on: methylated (GAM12) and unmethylated (GAC12) DNA probes; test: Southwestern assay with immobilized recombinant protein; format: binding
Experimental: as §2
In Southwestern assays using immobilized protein, neither isoform interacted with the probes, regardless of methylation status (FIG. 1C). Thus, either the proteins fail to bind or they are unable to refold on the membrane surface.

Molecule: CC(/C=C/C(=O)NO)=C\[C@@H](C)C(=O)c1ccc(N(C)C)cc1 [Trichostatin-A]
- relief of repression by Gal4-Gro [1]: relieves repression
- relief of repression mediated by tethered dMBD-like [1]: largely relieved
- relief of repression mediated by tethered dMBD-likeΔ [1]: largely relieved

B1: dMBD-like: Drosophila methyl CpG binding domain protein homolog, product of the 1115 base mRNA (SEQ ID NO:14) (protein)
chain: MQMNPSVTIERKRVDCSVLPKGWQRDEVRKSGSSANNNASSNNNSSATASSNNNNNKVDVFYYSPTGKRAEGKPQDIAIPDFQPGKMPHCALPSPSISLYRCSAMPLPIASGGGNGATSGSAANALKRKFARSQGGNAAGAAGAAPPAATASSAATATAASASPSTANRQQQQIELSRALRTDVSLVPPIRQTASIFKQPVTVIRNHKQDPAKAKNEPKHGTREKPKQLFWEKRLERLRACHDSGEELDDISLPKTIRTVGPNVNEQTVLQSVATALHMLNAGVHGQSSTKADLTKNAMAFMNPEQPLMHAVIISEDDIRKQEDRVGVARRKLQDALKT
- transcriptional repression lacking the Gal4 DBD [2]: failed to repress transcription
- binding to DNA in solution (electrophoretic mobility shift) [3]: fails to bind methylated DNA in solution
- binding of immobilized protein to DNA probes (Southwestern) [4]: fails to bind methylated DNA

B2: dMBD-likeΔ: shorter Drosophila MBD-like isoform, product of the 842 base mRNA (SEQ ID NO:15) (protein)
chain: MQMNPSVTIERKRVDCSVLPKGWQRDEVRKSGSSANNNASSNNNSSATASSNNNNNKVDVFYYSRALRTDVSLVPPIRQTASIFKQPVTVIRNHKQDPAKAKNEPKHGTREKPKQLFWEKRLERLRACHDSGEELDDISLPKTIRTVGPNVNEQTVLQSVATALHMLNAGVHGQSSTKADLTKNAMAFMNPEQPLMHAVIISEDDIRKQEDRVGVARRKLQDALKT
- transcriptional repression lacking the Gal4 DBD [2]: failed to repress transcription
